This note sets out measurements from patent publication US20040059519A1.

Assay [1] has as its target Neutravidin (deglycosylated avidin) (UniProt P02701). In words: multiplex, Neutravidin bead 70/60 without peptide, flow cytometry. On the technique in general: In flow cytometry, cells or beads pass a laser one at a time.
The next assay addresses Peptide 7 …-biotin. The assay can be described thus: multiplex 9-peptide bead set, flow cytometry; MAB 384-Bodipy 15.5 ug/mL.
The next assay concerns the target Peptide 9 …-biotin. The description is as above.
The next assay addresses Peptide 1 …-biotin. Described as above.
In a further assay the target is Peptide 3 …-biotin. Described as above.
The target in assay [2] is Alpha fetoprotein (UniProt P02771). The assay can be described thus: multiplex sandwich, S10473 capture beads; AFP 31 ng/mL, no wash.
UniProt P02771, sequence (P02771 19-609 limits assumed): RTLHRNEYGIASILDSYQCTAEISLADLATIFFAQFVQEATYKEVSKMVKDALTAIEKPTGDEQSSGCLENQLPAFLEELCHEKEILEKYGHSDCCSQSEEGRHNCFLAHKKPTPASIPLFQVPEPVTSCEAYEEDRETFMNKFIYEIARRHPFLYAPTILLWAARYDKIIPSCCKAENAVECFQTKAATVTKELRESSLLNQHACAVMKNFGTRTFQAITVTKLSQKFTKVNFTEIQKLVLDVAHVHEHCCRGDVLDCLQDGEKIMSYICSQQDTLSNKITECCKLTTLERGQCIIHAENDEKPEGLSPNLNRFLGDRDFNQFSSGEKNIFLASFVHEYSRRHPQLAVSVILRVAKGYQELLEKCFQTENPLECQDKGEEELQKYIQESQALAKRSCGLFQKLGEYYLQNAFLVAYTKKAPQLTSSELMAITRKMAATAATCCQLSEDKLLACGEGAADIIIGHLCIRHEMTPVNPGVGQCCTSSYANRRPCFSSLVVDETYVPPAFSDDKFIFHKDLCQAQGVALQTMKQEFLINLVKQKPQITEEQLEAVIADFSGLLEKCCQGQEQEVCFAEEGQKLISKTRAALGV
Assay [3] has the same target. In words: multiplex sandwich, S10473 capture beads; AFP 0.5 ng/mL, no wash.
Assay [4] has the same target. The assay can be described thus: multiplex sandwich, S10473 capture beads; AFP 8 ng/mL, washed.
For assay [5] the target is unchanged. The assay can be described thus: multiplex sandwich, S10473 capture beads; AFP 4 ng/mL, no wash.
For assay [6] the target is unchanged. The assay can be described thus: multiplex sandwich, S10473 capture beads; AFP 2 ng/mL, no wash.
For assay [7] the target is unchanged. The assay can be described thus: multiplex sandwich, S10473 capture beads; AFP 1000 ng/mL, washed.
Assay [8] deals with Human chorionic gonadotropin (human) (UniProt P01215). In words: multiplex sandwich, MAB602 capture beads; hCG 0 ng/mL, no wash.
UniProt P01215, sequence (P01215 25-116, chain 1 of 2, other chains not shown): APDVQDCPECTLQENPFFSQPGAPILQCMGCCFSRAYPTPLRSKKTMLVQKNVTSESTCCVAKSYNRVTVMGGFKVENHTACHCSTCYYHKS
The target is the same in assay [9]. In words: MAB602 capture beads, flow cytometry; hCG 1000.0 ng/mL, anti-hCG probe.
Assay [10] has the same target. In words: multiplex sandwich, MAB602 capture beads; hCG 62 ng/mL, washed.
Assay [11] shares this target. In words: multiplex sandwich, MAB602 capture beads; hCG 8 ng/mL, washed.
Assay [12] addresses Alpha fetoprotein (UniProt P02771). In words: anti-AFP capture beads, flow cytometry; AFP 100.0 ng/mL, anti-hCG probe.
The target in assay [13] is Human chorionic gonadotropin (human) (UniProt P01215). In words: multiplex sandwich, MAB602 capture beads; hCG 16 ng/mL, no wash.
Assay [14] has the same target. In words: multiplex sandwich, MAB602 capture beads; hCG 2000 ng/mL, no wash.
Assay [15] has the same target. In words: multiplex sandwich, MAB602 capture beads; hCG 0 ng/mL, washed.

UniProt P02701, sequence (P02701 25-152 limits assumed): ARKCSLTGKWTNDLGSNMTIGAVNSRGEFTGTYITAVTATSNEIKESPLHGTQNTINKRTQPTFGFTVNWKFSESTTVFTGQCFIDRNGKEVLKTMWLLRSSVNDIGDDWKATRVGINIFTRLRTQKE

In the case of MAB 384, Bodipy FL-X labeled (antibody), the MIF of Fm in assay [1] was determined as 23; with Peptide 7 …-biotin it was 35; with Peptide 9 …-biotin, 29; with Peptide 1 …-biotin it was 28; with Peptide 3 …-biotin, 36.
As for “M20077 affinity purified polyclonal anti-AFP antibody, Bodipy FL-CASE labeled”, the MIF of Fm in the assay with Alpha fetoprotein [2] worked out at 639; with Alpha fetoprotein [3] it was 24; in the assay with Alpha fetoprotein [4], 205; with Alpha fetoprotein [5] it was 94; with Alpha fetoprotein [6], 51; with Alpha fetoprotein [7] it was 1480.
For “AB633 affinity purified polyclonal anti-hCG antibody, Bodipy FL-CASE labeled”, the MIF of Fm in [8] turned out to be 15; in [9], 792; in assay [10], 3200; in assay [11] it was 1960; with Alpha fetoprotein [12], 75; in [13] it was 2440. For the same substance, the MIF of Fm in [14] was 491; in assay [15], 18.
